From the RNAGym collection of RNA variant scans (doi:10.1073/pnas.2313332121)
This sample holds only a part of the variants without activity.

B1: TPR 5TU (parent)
chain: GGAUCUUCUCGAUCUAACAAAAAAGACAAAUCUGCCACAAAGCUUGAGAGCAUCUUCGGAUGCAGAGGCGGCAGCCUUCGGUGGCGCGAUAGCGCCAACGUUCUCAACUAUGACACGCAAAACGCGUGCUCCGUUGAAUGGAGUUUAUCAUG

Variants of: B1
Test: polymerase ribozyme fitness, log enrichment relative to wild type (log ratio); higher = more active; in vitro selection for triplet polymerase activity
Summary of the method: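 After PCR construction and transcription, each subunit's mutant library from a heterodimeric triplet polymerase ribozyme was annealed with a biotinylated primer, the partner subunit and triplets. Incubation was frozen, at −7 °C, and extended constructs were gel-excised, bound to streptavidin beads and amplified by RT-PCR, in one selection round done in triplicate. Fitness is the logarithm of a genotype's enrichment divided by that of the wild type, from inverse-variance-weighted replicate averages of Illumina-sequenced inputs and outputs. The base of the logarithm is 2, and genotypes needed ≥10 input reads and ≥1 read per output.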

Variant | polymerase ribozyme fitness (log ratio)
G46A C76A C96U G141C | ≤ -4.2
A41C U56A U82A A150G | -1.45
A16G A41G U53G A73U G88A C125U G133U | ≤ -4.2
C131U | 1.18
C5G G11A A73G C76U | -2.17
A30G C38U A73U U78G C87G C105G | ≤ -4.2
A17U A22U U90G C125A U139C | ≤ -4.2
U7A A20C C93G C116G U135G | ≤ -4.2
G50A U53A A91U G124A C131G A137C | ≤ -4.2
C54U U56A G86A U102A C116A | -2.55
C85U A89U A119C | -0.895
G50C G59C G62A G68C C95U U148C | ≤ -4.2
A16G U53G G84U C96G | -3.88
A30U A52C U90C C93U C95U C96U A106G | ≤ -4.2
A23C A41U G68U C93U A106G | ≤ -4.2
U61A G143C | -2.62
C96U A107G G117A | ≤ -4.2
U15C C54A G62A U78A G88C A113C A150U | ≤ -4.2
G50A C93G G124A C125U G133A U135G A150G | ≤ -4.2
C35U G83A | -0.173
C38A G86C | -3.27

Variant | polymerase ribozyme fitness (log ratio)
U55A A60U C118G A119C | -0.427
C27G A40C G48A C63A G70U G81A G92A | ≤ -4.2
U135A G143A A147G | ≤ -4.2
U9G G74A G84A A107G | ≤ -4.2
A17G C54G | -1.5
C38A U56A | -0.602
C8A C43U G46A A73G C85U U134G U151A | ≤ -4.2
A115C A142G A150U | -3.13
U15A A40C | 0.538
C10U A41G A64G G65C A91C | ≤ -4.2
C85G U135C A138C | ≤ -4.2
C54A U61G | -1.82
G58A G83A G140U | -3.64
G58U U61G C63U G74C G141C | ≤ -4.2
C93A G94A C123U C149U | ≤ -4.2
A17G C96G | -1.29
C10U G141A | -2.07
G92C C132U | -1.6
U111A | -3.05
A52C C85U A147G | -3.76
U4A C76A G86C A122C | -3.26

Variant | polymerase ribozyme fitness (log ratio)
G83C C125A G136U | -2.54
A3U C36U U56G A60C U61G C79U C93U C99U G112C U144A A150C | ≤ -4.2
G42C C96U C99U | ≤ -4.2
A41U C93A A122G | -4.19
C35A U90A U111C A137C | ≤ -4.2
C27A U56A A60U A122C U144A | ≤ -4.2
U56A C95U A98U | -1.6
C14G U31A G136A | -2.23
G92A G117C | -2.82
U82G C87U U146C | -0.959
U13C U104G | -1.57
A40C C54U G141U | 0.7
A66C | -4.16
A23C C27G A60G A97C G124U | ≤ -4.2
C38A U55G A60G | 0.135
G59A U90G C95G | ≤ -4.2
U6G U31C G50A A147C | -2.65
A28C C85G A106C A113C | ≤ -4.2
A19U C75U G81C C99G A119G G140U | ≤ -4.2
C54A C87U | -3.48
U13G A19G G25C C79A C131G U145G | ≤ -4.2

Variant | polymerase ribozyme fitness (log ratio)
G50U C57U A73U G86U G126U | ≤ -4.2
C27A G58A C76G C99U U101G | ≤ -4.2
A73G A107U | -4.1
C105U U109G G133C | -1.81
U4C A22G G86A | -1.64
U33A C95U | -4.12
C18G A40U | 0.0147
G50A G141C | -1.77
U4G C114U | -2.01
U61A C118A | -2
C85U C87G C95G C131A U134G A147U | ≤ -4.2
U4G G84A C87U A106C G141A U144G | ≤ -4.2
U6C C38A G59U C69A | -2.2
U7G A19G | -2.47
A52G A107C | -3.09
G50C A52C U56C C96U A107U | ≤ -4.2
U33C G81U C93G G143U | -4.06
C57G A150G | -1.23
A47U C85U | -0.698
G50A A106G C118U | -1.6
A40U A107U C132G | ≤ -4.2
